Measured values: article PMC5928155, “Sak4 of Phage HK620 Is a RecA Remote Homolog With Single-Strand Annealing Activity Stimulated by Its Cognate SSB Protein” (Frontiers in Microbiology, 2018)

What was measured:
[1] = molecular target: T1, Sak4 (HkaL) of phage HK620 (Enterobacteria phage HK620, UniProt Q9AZ29); assay: gel shift of Cy5-labelled 81-mer ssDNA and single-strand annealing assay, with or without ATP; conditions: 1 mM ATP, 5 mM MgCl2, about 150-169 mM NaCl, pH 7.5, 30 °C; ATP needed for ssDNA binding and annealing; functional evidence, nucleotide binding not measured directly
T1 construct: untagged full-length Sak4 from plasmid pSMG288, expressed in E. coli ER2566; monomer in solution
T1 sequence (Q9AZ29 1-226): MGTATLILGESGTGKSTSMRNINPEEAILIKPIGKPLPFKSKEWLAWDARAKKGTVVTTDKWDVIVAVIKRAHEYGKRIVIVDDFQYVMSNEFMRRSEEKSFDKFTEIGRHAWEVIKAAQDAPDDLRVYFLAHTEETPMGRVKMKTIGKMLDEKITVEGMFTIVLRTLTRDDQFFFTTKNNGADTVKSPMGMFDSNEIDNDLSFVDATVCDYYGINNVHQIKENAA

[2] = molecular target: SSB_(HK620), wild-type HkaK protein from phage HK620 (phage HK620) (UniProt Q9AZ30)
Sak4 (HkaL) [3] = molecular target: T2, Sak4 (HkaL) (Enterobacteria phage HK620, UniProt Q9AZ29 1-226); assay: EMSA; 1 mM ATP, 5 mM Mg2+; EMSA: 13 mM Tris-HCl pH 7.5, 5 mM MgCl2, 169 mM NaCl, 0.1 mg/mL BSA, 1 mM DTT, +/- 1 mM ATP, 10 nM DNA, 15 min at 30 C; 5% native PAGE in 1X TAE; conditions: protein: recombinant; tags: none stated; label: 5'-Cy5; single strand
T2 sequence: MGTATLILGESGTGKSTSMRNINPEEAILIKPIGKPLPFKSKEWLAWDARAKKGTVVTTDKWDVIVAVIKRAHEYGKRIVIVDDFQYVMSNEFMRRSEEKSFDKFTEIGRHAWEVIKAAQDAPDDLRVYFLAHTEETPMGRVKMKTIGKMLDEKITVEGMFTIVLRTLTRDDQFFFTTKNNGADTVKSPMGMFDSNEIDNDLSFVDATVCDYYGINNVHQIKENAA

[4] = molecular target: T3, Sak4 (HkaL);SSB HK620 (HkaK) (Enterobacteria phage …, UniProt Q9AZ29;Q9AZ30 1-226;1-195, |); assay: EMSA; Sak4 titrated on GO47 precoated with 5.1 uM SSB HK620; 1 mM ATP; value is Sak4 concentration; EMSA: 13 mM Tris-HCl pH 7.5, 5 mM MgCl2, 169 mM NaCl, 0.1 mg/mL BSA, 1 mM DTT, +/- 1 mM ATP, 10 nM DNA, 15 min at 30 C; 5% native PAGE in 1X TAE; conditions: protein: recombinant;recombinant; tags: none stated;untagged; copies: 1;4; label: 5'-Cy5; single strand
T3 sequence 1: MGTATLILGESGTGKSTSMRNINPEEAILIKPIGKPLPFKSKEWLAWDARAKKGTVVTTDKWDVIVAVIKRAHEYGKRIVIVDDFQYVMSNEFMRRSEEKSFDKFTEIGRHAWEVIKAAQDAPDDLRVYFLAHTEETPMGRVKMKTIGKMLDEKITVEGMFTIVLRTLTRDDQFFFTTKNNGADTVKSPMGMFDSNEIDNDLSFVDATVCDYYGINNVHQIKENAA
T3 sequence 2: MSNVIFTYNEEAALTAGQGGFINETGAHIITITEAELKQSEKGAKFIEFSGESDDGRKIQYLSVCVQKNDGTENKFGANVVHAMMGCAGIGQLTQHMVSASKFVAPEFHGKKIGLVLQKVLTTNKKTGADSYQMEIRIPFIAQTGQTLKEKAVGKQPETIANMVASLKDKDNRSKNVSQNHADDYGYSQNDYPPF

SSB Ecoli = SSB Ecoli (Escherichia coli, UniProt P0AGE0 2-178); assay: EMSA; 5 mM Mg2+, 1 mM ATP; EMSA: 13 mM Tris-HCl pH 7.5, 5 mM MgCl2, 169 mM NaCl, 0.1 mg/mL BSA, 1 mM DTT, +/- 1 mM ATP, 10 nM DNA, 15 min at 30 C; 5% native PAGE in 1X TAE; conditions: protein: commercial; chain copies: 4; label: 5'-Cy5; single strand
SSB HK620 (HkaK) = molecular target: T4, SSB HK620 (HkaK) (Enterobacteria phage HK620, UniProt Q9AZ30 1-195); assay: as above; conditions: protein: recombinant; tags: untagged; chain copies: 4; label: 5'-Cy5; single strand
T4 sequence: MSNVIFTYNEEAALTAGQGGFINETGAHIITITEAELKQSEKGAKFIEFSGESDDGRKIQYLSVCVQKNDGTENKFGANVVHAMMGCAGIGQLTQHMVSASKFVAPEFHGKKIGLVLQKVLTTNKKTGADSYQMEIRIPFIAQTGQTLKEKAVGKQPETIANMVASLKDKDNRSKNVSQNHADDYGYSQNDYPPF

Sak4 (HkaL) [5] = molecular target: T2, Sak4 (HkaL); assay: EMSA; 3.7 uM Sak4, 1 mM ATP; EMSA: 13 mM Tris-HCl pH 7.5, 5 mM MgCl2, 169 mM NaCl, 0.1 mg/mL BSA, 1 mM DTT, +/- 1 mM ATP, 10 nM DNA, 15 min at 30 C; 5% native PAGE in 1X TAE; conditions: protein: recombinant; tags: none stated; label: 5'-Cy5 on GO47; blunt
[6] = molecular target: the molecule itself; assay: SEC; Superdex 200 10/300 GL; proteins alone or together in 1 mL of 50 mM Tris-HCl pH 8, 1 mM DTT, 5% glycerol, 150 mM NaCl, 20 min at 30°C before injection; fractions analysed by SDS-PAGE; no ssDNA, no ATP

Chain of SSB Ecoli (P0AGE0 2-178): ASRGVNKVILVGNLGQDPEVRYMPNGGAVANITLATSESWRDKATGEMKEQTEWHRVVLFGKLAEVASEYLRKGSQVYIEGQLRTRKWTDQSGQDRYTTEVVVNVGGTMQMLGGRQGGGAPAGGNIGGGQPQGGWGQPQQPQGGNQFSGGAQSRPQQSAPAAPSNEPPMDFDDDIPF

## Nc1ncnc2c1ncn2[C@@H]1O[C@H](COP(=O)(O)OP(=O)(O)OP(=O)(O)O)[C@@H](O)[C@H]1O [ATP]
[1]
  gel shift of Cy5-labelled 81-mer ssDNA and single-strand annealing assay, with o: Sak4 shifted the ssDNA only if ATP was added in the reaction buffer

## Sak4 protein of phage HK620 (natural protein)
[2]
  single-strand annealing of GO47 and GO34 (10 nM each) by 0.5 µM Sak4 with SSB (HK620) at concentrations above 640 nM, 1 mM ATP (spontaneous annealing 11.8%): > 65%

B1: GO47 (ssDNA)
DNA: ACCTGAATCGCCAGCGGCATCAGCACCTTGTCGCCTTACGTATACTATTTGCCCATGGTGAAAACGGGGGCGAAGAAGTTG
Sak4 (HkaL) [3]
  apparent K (half saturation): ~1850 nM
[4]
  apparent K (half saturation): < 500 nM
SSB Ecoli
  apparent K (half saturation): ~40 nM
SSB HK620 (HkaK)
  apparent K (half saturation): 226 nM

B2: GO47/GO34 duplex (dsDNA)
DNA 1: ACCTGAATCGCCAGCGGCATCAGCACCTTGTCGCCTTACGTATACTATTTGCCCATGGTGAAAACGGGGGCGAAGAAGTTG
DNA 2: CAACTTCTTCGCCCCCGTTTTCACCATGGGCAAATAGTATACGTAAGGCGACAAGGTGCTGATGCCGCTGGCGATTCAGGT
Sak4 (HkaL) [5]
  binding result: no binding

B3: SSB_(HK620), wild-type HkaK protein from phage HK620 (natural protein, UniProt Q9AZ30 1-195, looked up)
chain: MSNVIFTYNEEAALTAGQGGFINETGAHIITITEAELKQSEKGAKFIEFSGESDDGRKIQYLSVCVQKNDGTENKFGANVVHAMMGCAGIGQLTQHMVSASKFVAPEFHGKKIGLVLQKVLTTNKKTGADSYQMEIRIPFIAQTGQTLKEKAVGKQPETIANMVASLKDKDNRSKNVSQNHADDYGYSQNDYPPF
notes: HkaK (first annotated Abc1) of phage HK620, a distant SSB homolog (Pfam DUF669); produced untagged; monomer 21.3 kDa; Untagged; also called Abc1_(HK620); HkaK/Abc1_(HK620); source: E. coli ER2566 with pSMG279, purified (PEI, ammonium sulfate, HiTrap Heparin)
[6]
  stoichiometry N: 4
